US20030124132A1 (University of Texas, published 2003)

Assays:
[1] = test system: cancer patients having progressive disease; details: progressive disease before treatment; cited from earlier work
[2] = test system: TNFα; details: cited from earlier work
[3] = test system: bEnd.3 endothelial cells; test: PS surface expression on endothelial cells exposed to H2O2 (anti-PS IgM staining); assay type: cell-based, mouse
Description: (§1) Mouse bEnd.3 endothelial cells were seeded at an initial density of 50,000 cells/well. Twenty-fours later cells were incubated with increasing concentrations of H2O2 (from 10 μM to 500 μM) for 1 hour at 37° C. or left untreated. At the end of the incubation, cells were washed 3 times with PBS containing 0.2% gelatin and fixed with 0.25% glutaraldehyde. Identical wells were either stained with anti-PS IgM or trypsinized and evaluated for viability by the Trypan Blue exclusion test. For the anti-PS staining, after blocking with 2% gelatin for 10 min., cells were incubated with 2 μg/ml of anti-PS antibody, followed by detection with anti-mouse IgM-HRP conjugate.

[4] = test system: bEnd.3 endothelial cells; test: Viability of endothelial cells exposed to H2O2 (Trypan Blue exclusion); assay type: cell-based, mouse
Description: as §1

[5] = test system: human umbilical vein endothelial cells (HUVEC); details: cited from earlier work
[6] = target: I-A^d MHC Class II antigen (mouse) (UniProt P04228); test: FACS
[7] = target: I-A^d MHC Class II antigen (mouse) (UniProt P04228); test: cell-based or functional assay
[8] = test system: tissue factor on HUVEC cells; test: FACS analysis of tissue factor expression on endothelial cells; assay type: cell-based, human; details: TNFα 500 U/ml, LPS 10 μg/ml, VEGF 1 nM, alone or in combination, 6 h
Description: To analyze tissue factor expression on the surface of endothelial cells, HUVEC cells were incubated with TNFα (500 U/ml), LPS (10 μg/ml) or vascular endothelial growth factor (VEGF, 1 nM) alone or in combination for 6 h at 37°. Cells were then detached and stained for surface expression of human tissue factor with a sheep-anti-human tissue factor antibody (Haemochrom, Essen, Germany) and an appropriate FITC-conjugated secondary antibody. Fluorescent cells were detected on a flow cytometer (Becton Dickinson, San Jose, Calif.).

[9] = test system: A20 lymphoma cells (I-A^d positive), mouse or human plasma; test: In vitro coagulation assay on A20 cells with capture bispecific antibody B21-2/10H10; assay type: cell-based; details: for concentration at which plasma coagulated in 50 seconds: bound via B21-2/10H10 to A20 cells, separate studies per block; for coagulation inducing activity lower than reference: versus monomer / unconjugated form or tTF219
[10] = test system: Factor X to Xa conversion on A20 cells; test: Factor Xa production assay on A20 cells; assay type: cell-based, mouse; details: Factors II, VII, IX and X present
[11] = target: T1, tissue factor on the surface of stimulated 2F2B mouse endothelial cells (mouse, UniProt P20352 29-294); test: FACS on 2F2B mouse endothelial cells stimulated with LPS or TNF alpha, detection with sheep anti-human TF antibody; also a cell bound coagulation assay
T1 construct: whole, on cells; also called cell-surface tissue factor; endogenous TF
T1 sequence (looked up): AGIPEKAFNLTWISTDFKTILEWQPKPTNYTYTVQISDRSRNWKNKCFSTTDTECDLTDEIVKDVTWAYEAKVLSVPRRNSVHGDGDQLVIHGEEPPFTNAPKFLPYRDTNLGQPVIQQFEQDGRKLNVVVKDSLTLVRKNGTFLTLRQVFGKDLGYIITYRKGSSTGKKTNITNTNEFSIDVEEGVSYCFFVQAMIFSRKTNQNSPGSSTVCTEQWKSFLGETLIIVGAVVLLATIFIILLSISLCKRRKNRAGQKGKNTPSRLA

[12] = test system: IL-1α-stimulated bEnd.3 cells; test: Chromogenic assay of Factor Xa formation by cell-bound coaguligand, with Annexin V; assay type: cell-based, mouse; details: Annexin V 10 μg per ml
Description: The ability of Annexin V to affect Factor Xa formation induced by coaguligand was determined by a chromogenic assay. […] Annexin V was added at concentrations ranging from 0.1 to 10 μg/ml and cells were incubated for 30 min. before addition of diluted Proplex T. The amount of Factor Xa generated in the presence or absence of Annexin V was determined. Each treatment was performed in duplicate and repeated at least twice.

[13] = test system: L540 Hodgkin tumor blood vessels; test: Annexin V inhibition of coaguligand-induced thrombosis in vivo; design: species or system SCID mice; details: 100 μg Annexin V alone or 2 hours before 40 μg coaguligand
Description: The ability of Annexin V to inhibit coaguligand-induced thrombosis in vivo was examined in L540 Hodgkin-bearing SCID mice.
Four hours after the last injection mice were anesthetized and perfused with heparinized saline. Tumors were removed, fixed with 4% formalin, paraffin-embedded and stained with hematoxylene-eosin. The number of thrombosed and non-thrombosed blood vessels were counted and the percentage of thrombosis was calculated.
Groups of tumor-bearing mice were treated with one of the control or test reagents. […] Identical results were obtained in both mice per group.

## NC(=O)c1nnn(Cc2cc(Cl)c(C(=O)c3ccc(Cl)cc3)c(Cl)c2)c1N [CAI, carboxyamidotriazole]
[1]
  cancer patients with disease stabilization: 49%

## Cc1ccc2c(=O)c3cccc(CC(=O)O)c3oc2c1C [DMXAA]
[2]
  less effective than endotoxin in inducing TNFα: 20 fold

## OO [H2O2]
[3]; H2O2 as low as 20 μM (lower than 100 μM)
  cells with PS at the cell surface: about 50%
[3]; H2O2 higher than 100 μM, 1 hour
  cells with PS translocation: ~90%
[4]; H2O2 higher than 100 μM
  cell viability: 50-60%
[4]; low levels of H2O2, identical to untreated cells
  cell viability: 95%
[5]; 15 μM H2O2
  viability: 90 to 95%
[5]; 1500 μM H2O2
  viable cells: 0%-50%

## B21-2 anti-I-A^d antibody
[6]
  fold higher affinity than M5/114.15.2: 5 to 10 fold

## B21-2/10H10 bispecific antibody
[7]
  time for fibrin strands to form after adding mouse plasma to A20 cells: 36 s

## VEGF
[8]
  tissue factor expression on the surface of HUVEC: upregulated tissue factor expression

B1: H6-tTF219-cys-C′: tTF with (His)6 and a Cys after amino acid 219 (protein)
chain: HHHHHHAMALVPRGSGTTNTVAAYNLTWKSTNFKTILEWEPKPVNQVYTVQISTKSGDWKSKCFYTTDTECDLTDEIVKVKQTYLARVFSYPAGNVESTGSAGEPLYENSPEFTPYLETNLGQPTIQSFEQVGTKVNVTVEDRTLVRRNNTFLSLRDVFGKDLIYTLYYWKSSSSGKKTAKTNTNEFLIDVDKGENYCFSVQAVIPSRTVNRKSTDSPVECMGQEKGEFREC
[9]
  concentration at which plasma coagulated in 50 seconds: 3 nM

B2: tTF221-cys-C′: H6-tTF221-cys-C′ without the (His)6 tag (protein)
chain: GSGTTNTVAAYNLTWKSTNFKTILEWEPKPVNQVYTVQISTKSGDWKSKCFYTTDTECDLTDEIVKDVKQTYLARVFSYPAGNVESTGSAGEPLYENSPEFTPYLETNLGQPTIQSFEQVGTKVNVTVEDERTLVRRNNTFLSLRDVFGKDLIYTLYYWKSSSSGKKTAKTNTNEFLIDVDKGENYCFSVQAVIPSRTVNRKSTDSPVECMGQEKGEFREIFC
[9]
  concentration at which plasma coagulated in 50 seconds: 0.5 nM

B3: IgG-H6-N′-cys-tTF219: one molecule of IgG linked via SMPT to one or two molecules of tTF (conjugate)
chain: HHHHHHAMALVPRGSCGTTNTVAAYNLTWKSTNFKTILEWEPKPVNQVYTVQISTKSGDWKSKCFYTTDTECDLTDEIVKDVKQTYLARVFSYPAGNVESTGSAGEPLYENSPEFTPYLETNLGQPTIQSFEQVGTKVNVTVEDERTLVRRNNTFLSLRDVFGKDLIYTLYYWKSSSSGKKTAKTNTNEFLIDVDKGENYCFSVQAVIPSRTVNRKSTDSPVECMGQEKGEFRE
modifications: left off: large carriers
[9]
  concentration at which plasma coagulated in 50 seconds: 5 nM
  coagulation inducing activity lower than reference: 5 fold
[10]
  less active than H6-N′-cys-tTF219 at inducing Xa formation: 2 fold

B4: Fab′-H6-N′-cys-tTF219: Fab′ fragment disulfide-linked to H6-N′-cys-tTF219 (conjugate)
chain: B3 chain
modifications: left off: another chain or arm of the molecule; large carriers
[10]
  activity at inducing Xa formation relative to H6-N′-cys-tTF219: as active as H6-N′-cys-tTF219 itself

B5: tTF220-cys-C′: H6-tTF220-cys-C′ without the (His)6 tag (protein)
chain: GSGTTNTVAAYNLTWKSTNFKTILEWEPKPVNQVYTVQISTKSGDWKSKCFYTTDTECDLTDEIVKDVKQTYLARVFSYPAGNVESTGSAGEPLYENSPEFTPYLETNLGQPTIQSFEQVGTKVNVTVEDERTLVRRNNTFLSLRDVFGKDLIYTLYYWKSSSSGKKTAKTNTNEFLIDVDKGENYCFSVQAVIPSRTVNRKSTDSPVECMGQEKGEFREIC
[9]
  concentration at which plasma coagulated in 50 seconds: 0.5 nM

B6: recombinant, depyrogenated truncated Tissue Factor (amino acids 1-219) of Example X (other, human, UniProt P13726 33-251, looked up)
chain: SGTTNTVAAYNLTWKSTNFKTILEWEPKPVNQVYTVQISTKSGDWKSKCFYTTDTECDLTDEIVKDVKQTYLARVFSYPAGNVESTGSAGEPLYENSPEFTPYLETNLGQPTIQSFEQVGTKVNVTVEDERTLVRRNNTFLSLRDVFGKDLIYTLYYWKSSSSGKKTAKTNTNEFLIDVDKGENYCFSVQAVIPSRTVNRKSTDSPVECMGQEKGEFRE
notes: also called tTF; endotoxin-free tTF
[11]
  binding result: no binding

B7: Annexin V: binds to PS with high affinity (protein, UniProt P08758 2-320, looked up)
Annexin A5: AQVLRGTVTDFPGFDERADAETLRKAMKGLGTDEESILTLLTSRSNAQRQEISAAFKTLFGRDLLDDLKSELTGKFEKLIVALMKPSRLYDAYELKHALKGAGTNEKVLTEIIASRTPEELRAIKQVYEEEYGSSLEDDVVGDTSGYYQRMLVVLLQANRDPDAGIDEAQVEQDAQALFQAGELKWGTDEEKFITIFGTRSVSHLRKVFDKYMTISGFQIEETIDRETSGNLEQLLLAVVKSIRSIPAYLAETLYYAMKGAGTDDHTLIRVMVSRSEIDLFNIRKEFRKNFATSLYSMIKGDTSGDYKKALLLLCGEDD
[12]
  inhibition of factor Xa production: 58%
[13]
  effect on tumor thrombosis / morphology: did not alter tumor morphology

B8: H6-tTF220-cys-C′: tTF219 with Ile-Cys after amino acid 219, (His)6 (protein)
chain: HHHHHHAMALVPRGSGTTNTVAAYNLTWKSTNFKTILEWEPKPVNQVYTVQISTKSGDWKSKCFYTTDTECDLTDEIVKDVKQTYLARVFSYPAGNVESTGSAGEPLYENSPEFTPYLETNLGQPTIQSFEQVGTKVNVTVEDERTLVRRNNTFLSLRDVFGKDLIYTLYYWKSSSSGKKTAKTNTNEFLIDVDKGENYCFSVQAVIPSRTVNRKSTDSPVECMGQEKGEFRE
[9]
  concentration at which plasma coagulated in 50 seconds: 0.5 nM

B9: H6-tTF221-cys-C′ dimer: chemically conjugated disulfide dimer of H6-tTF221-cys-C′ (protein)
chain: B8 chain
[9]
  concentration at which plasma coagulated in 50 seconds: 4 nM
  coagulation inducing activity lower than reference: 4 fold
